From article PMC3247650 (Pharmaceutical research, 2011)

Tests used:
Appearance = type: physicochemical; conditions: GLP-1 1mg/ml in neutral solution
DPP IV = conditions: read-out: Km of DPP IV for GLP-1; cited from earlier work
[1] = Stability of PGC-C18-GLP-1 formulation at 37°C; type: physicochemical; conditions: GLP-1 without PGC-C18, liquid, 100mM glycine pH 6.8, 2mg/ml GLP-1, 37°C, total GLP-1 peak by reverse phase HPLC
Porcine kidney DPP IV = Porcine kidney DPP IV (Sus scrofa, UniProt P22411); test: DPP IV degradation of GLP-1 in the presence or absence of PGC or PGC-C18; type: in vitro ADME; conditions: 24 hours, 37°C, reverse phase HPLC, mean +/−SD, n=6
Chain of Porcine kidney DPP IV (P22411 whole entry): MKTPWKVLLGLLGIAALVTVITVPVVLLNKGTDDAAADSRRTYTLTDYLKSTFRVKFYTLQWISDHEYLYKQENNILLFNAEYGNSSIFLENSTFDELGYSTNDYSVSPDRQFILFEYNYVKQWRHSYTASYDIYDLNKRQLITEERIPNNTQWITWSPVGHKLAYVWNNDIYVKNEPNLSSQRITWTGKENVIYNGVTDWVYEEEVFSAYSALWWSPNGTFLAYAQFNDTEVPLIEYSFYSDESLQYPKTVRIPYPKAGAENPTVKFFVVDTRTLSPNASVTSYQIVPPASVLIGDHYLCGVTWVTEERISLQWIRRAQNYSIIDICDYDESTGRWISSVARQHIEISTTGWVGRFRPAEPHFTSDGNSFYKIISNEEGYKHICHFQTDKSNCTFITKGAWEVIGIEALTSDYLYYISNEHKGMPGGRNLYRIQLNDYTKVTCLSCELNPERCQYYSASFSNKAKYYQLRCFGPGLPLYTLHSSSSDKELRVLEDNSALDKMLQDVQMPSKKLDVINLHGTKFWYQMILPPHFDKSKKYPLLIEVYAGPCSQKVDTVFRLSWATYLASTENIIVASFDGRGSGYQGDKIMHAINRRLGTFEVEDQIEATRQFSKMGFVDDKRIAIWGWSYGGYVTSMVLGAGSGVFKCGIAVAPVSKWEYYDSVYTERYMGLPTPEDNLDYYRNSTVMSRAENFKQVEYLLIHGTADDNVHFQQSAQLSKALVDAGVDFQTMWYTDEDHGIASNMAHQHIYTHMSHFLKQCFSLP

Glucagon-like peptide-1 [GLP-1]
appearance of solution when heated to 50°C (Appearance; 50°C): quite clear | appearance of solution as it cools down to room temperature (Appearance; cooled from 50°C to room temperature): turns cloudy and less soluble | Km (DPP IV): 36 µM | GLP-1 broken down within a month [1]: greater than 10% | GLP-1 degraded by DPP IV in the presence of the carrier PGC-C18 (Porcine kidney DPP IV; 1mg/ml GLP-1 + 10mg/ml PGC-C18 (1:10 w/w), PBS pH 7.4, 1.25mU/mL DPP IV): 26+/−2% | GLP-1 degraded by DPP IV, without any carrier (Porcine kidney DPP IV; 1mg/ml GLP-1, PBS pH 7.4, 1.25mU/mL DPP IV): 58+/−5%
